Here are results for 17 molecules from patent US20260209318A1 (NATIONAL UNIVERSITY OF SINGAPORE, published 2026).

Residue numbers refer to the chain shown, from its start. In names and notes the source's numbering stands.

Assay [1] concerns the target T1, BQ.1.1 spike protein (SARS-CoV-2 variant BQ.1.1, UniProt P0DTC2 14-1273). The assay is described as follows: cell-based or functional assay.
For assay [2], the target named is SARS-CoV-2 B.1.351 (beta) RBD (SARS-CoV-2 B.1.351 (beta), UniProt P0DTC2 319-541). Put plainly: multiplex sVNT, RBD-coated beads, PE-hACE2 as competitor.
For assay [3], the target named is SARS-CoV-2 B.1.1.529.1 (BA.1) RBD (SARS-CoV-2 B.1.1.529.1 (BA.1), UniProt P0DTC2 319-541). Described as above.
Assay [4] has as its target SARS-CoV-2 B.1.1.529.5 (BA.5) RBD (SARS-CoV-2 B.1.1.529.5 (BA.5), UniProt P0DTC2 319-541). The assay is described as above.
A further assay deals with SARS-CoV-2 XBB.1 RBD (SARS-CoV-2 XBB.1, UniProt P0DTC2 319-541). Described as above.
Assay [5] addresses SARS-CoV-2 B.1.617.2 (delta) RBD (SARS-CoV-2 B.1.617.2 (delta), UniProt P0DTC2 319-541). The assay is described as above.
A further assay has as its target XBB.1 spike protein (SARS-CoV-2 variant XBB.1, UniProt P0DTC2 14-1273). Put plainly: cell-based or functional assay.
Assay [6] addresses T1, BQ.1.1 spike protein. The assay is described as follows: pVNT (FIG. 1E, 1F, 2A, 3 cited); no direct binding assay described.

B1: Ab48 (10x-L8N-c72) (antibody, V domains shown)
VH: QVQLQQWGAGLLKPSETLSLTCTVYGGSISGYYWNWIRQPPGKGLEWIGEIDHSGNTNYNSSLKSRITIALDTSKKEISLKVTSVTAADTAVYYCARLDYYHYSQDAWGQGTTVTVSS
VL: EIVLTQSPDFQSVTPKERVTITCRASQSIGASLHWYQLKPNQSPKLLIKYASQSISGVPSRFSGSGSGTDFTLTISSLEAEDAATYYCLQSSNLYSFGQGTKLEIK
B1: in the assay with BQ.1.1 spike protein [1], the “IC50 (pVNT)” value is not above 550 ng/ml.

B2: Ab42 (10x-L8N-c41) (antibody, V domains shown)
VH: EVQLLESGGGLVQPGGSLRLSCAGSGFTFSSYAMSWVRQAPGKGLEWVSSISSSGGLTFYADSVRGRSTISRDHSRNTLYLQMNSLRAEDTALYYCAREQGDSYDDYFDYWGQGTLVTVSS
VL: DIQMTQSPSSLSASVGDRVTITCRASQGIRSSLAWYQQRPGKAPKLLLSAASILESGVPSRFSGSGSGTDYTLTINGLQPDDFATYYCQQYYVTPGITFGGGTKVEIR
Take B2: in the assay with BQ.1.1 spike protein [1], the “IC50 (pVNT)” value is not above 550 ng/ml.

B3: Ab51 (10x-L8N-c86) (antibody, V domains shown)
VH: EVQLVESGGGLVKPGESLRLSCAASGFTFSSSSLNWVRQAPGKGLEWVSSISISGDYTYYADSVKGRFTISRDNGKNSVYLQMDRLRVEDTAMYYCARDRFGFYDMLAHSYNVGFFQSWGQGTLVAVSS
VL: DIRMTQSPSSLSASVGDSVTITCRASQDITNYLAWFQQKPGKAPKSLIYSASILQSGVPSKFSGSGSGTDFTLTISSLQPEDFATYYCQQYLTYPITFGQGTRLEIK
Turning to B3, the “IC50 (pVNT)” value with BQ.1.1 spike protein [1] is not above 550 ng/ml.

B4: Ab46 (10x-L8N-c63) (antibody, V domains shown)
VH: QVHLVQSGAEVKKPGSSVKVSCKASGGTFSSHTVSWVRQAPGQGLEWMGRIIPPFGIVNYAQKFQGRVTITADESTSTAYMELSSLSSEDTAVYYCARSNVVVVTEAGWFDPWGQGTLVTVSS
VL: DIQMTQSPSSVSASVGDRVTITCRASQGISSSLAWYQQKPGKAPKVLIFDASTLQSGVPSRFSGSGSGTDFTLTISNLRPEDFATYYCQQAHSFPFTFGPGTKVDIK
For B4, the “IC50 (pVNT)” value in the assay with BQ.1.1 spike protein [1] was not above 550 ng/ml.

B5: Ab44 (10x-L8N-c53) (antibody, V domains shown)
VH: QVQLQQSGAEVKKPGSSVKVSCESSGGTFTSHAINWVRQAPGQRLEWMGRIIPVLGVAAYAQKFQGRVTLTADKFTSTAYMELSSLRSEDTAVYFCARSAYNYDSSGYHFDYWGQGTLVLVSS
VL: DIQMTQSPSTLSASVGDRVTITCRASQSISNWLAWYQQKPGTAPKLLIFKASTLQSGVPSRFSGSGSGTEFTLTISSLQPDDFATYHCQQYHSSRSFGQGTKVEIK
Regarding B5, the “IC50 (pVNT)” value with BQ.1.1 spike protein [1] is not above 550 ng/ml.

B6: Ab47 (10x-L8N-c64) (antibody, V domains shown)
VH: QVQLVQSGAEVKKPGSSVKVSCEASGDTFSRYAITWVRQAPGQGLEWMGRIIPMFGSANYAQKFQGRVSFTADKSTSTASMELSSLRSEDTAVYYCATSPYYSDSGGYYCDYWGQGSLVTVSS
VL: DIQMTQSPSSLSASVGDRVTITCRASQGISNYLAWYQQKPGKAPKLLLYGASRLQSGVPSRFSGSGSGTDYTLTISSLQPEDFATFYCQQYYSAPRTFGQGTKVEIK
For the molecule B6, the “IC50 (pVNT)” value with BQ.1.1 spike protein [1] was not above 550 ng/ml.

B7: SS6V11-E7 (antibody, V domains shown)
VH: QVQLQESGPGLVKPSETLSLTCTVSGGFIGPHYWSWVRQPPGKGLEWIGYIYISGSTNYNPSLKSRLTISVDMSKSQFSLTLSSATAADTAVYYCARGGGYLETGPFEYWGQGTLVTVSS
VL: DIVMTQSPLSLPVTPGEPASISCRSSQSLLQNNGYNYLAWYLQKPGQSPQLLIYLSSTRASGVPDRFSGSGSGTDFTLKISRVEAEDVGVYYCMQSLQIPGTFGQGTRLEIK
Consider B7, for which the binding result (in assay [2]; in assay [3]; in assay [4]; with SARS-CoV-2 XBB.1 RBD; in assay [5]) was “binds” in each case.

B8: Ab2 (H12.2) (antibody, V domains shown)
VH: EFQLVESGGRLVRPGGSLRLSCVASEIIVSRNYMSWIRQAPGKGLEWVSILYAGGTTYYADSVKGRFTISRDNSKNTLYLQLNSLRVEDTAIYYCVRPIVGGRGGMDVWGQGTTVTVSS
VL: DIQMTQSPSSLSASVGDRVTITCQASQDINKYLNWYQQKPGKAPKLLIYDASNLEPGVPSRFSGSGSGTDFVFTITSLQPEDIATYYCHYYDDVPYTFGQGTQLEIK
With B8, in the assay with XBB.1 spike protein, the “concentration required to effectively neutralize (pVNT)” value (“concentration required” for short) worked out at 8.5 ng/ml and the “times less than the concentration of E7” value is approximately 40 times. In the assay with BQ.1.1 spike protein [1], the “IC50 (pVNT)” value was not above 300 ng/ml and the “concentration required” value was determined as 16.6 ng/ml. Also, the binding result with SARS-CoV-2 XBB.1 RBD is on record as “binds”.

B9: Ab5 (10x-L8N-c25) (antibody, V domains shown)
VH: B8 VH with E1D, R10G, I28T, L51I, A53P, L78M, V87P, G101R, R103G
VL: B8 VL with S52T, H89Q
As to B9, in the assay with XBB.1 spike protein, the “concentration required” value was 40.8 ng/ml and the “times less than the concentration of E7” value is approximately 8 times. Further, in the assay with BQ.1.1 spike protein [1], the “IC50 (pVNT)” value is not above 300 ng/ml, the “concentration required” value amounted to 57.5 ng/ml and the “times less than the concentration of E7” value was approximately 10 times.

B10: Ab41 (10x-L8N-c39) (antibody, V domains shown)
VH: QVQLVQSGAEVKKPGASVKVSCKGSGYTFTDYGISWVRQAPGQGLEWMGWIRAYNGNTDYAQKFQGRVTMTRDTSTTTAYMELRSLRSDDTAVYFCALNLIAAAATPFDHWGQGTLVTVSS
VL: EIVLTQSPGTLSLSRGERATLSCRASQSVSSSYLAWYQQKRGQAPRLLIYGATSRATGIPDRFSGSGSGTDFTLTISRLEPEDFAVYYCQHYGSSPPPFGGGTKVEIR
As to B10, in the assay with BQ.1.1 spike protein [1], the “IC50 (pVNT)” value is not above 550 ng/ml.

B11: LyCov-1404 (bebtelovimab) (antibody, V domains shown)
VH: QITLKESGPTLVKPTQTLTLTCTFSGFSLSISGVGVGWLRQPPGKALEWLALIYWDDDKRYSPSLKSRLTISKDTSKNQVVLKMTNIDPVDTATYYCAHHSISTIFDHWGQGTLVTVSS
VL: QSALTQPASVSGSPGQSITISCTATSSDVGDYNYVSWYQQHPGKAPKLMIFEVSDRPSGISNRFSGSKSGNTASLTISGLQAEDEADYYCSSYTTSSAVFGGGTKLTVL
For the molecule B11, the binding result in the assay with BQ.1.1 spike protein [6] is “no binding”.

B12: Ab40 (10x-L8N-c32) (antibody, V domains shown)
VH: QVQLQESGPRLVKPSETLSLTCTVSGGSISSYYWTWIRQPPGKGLEWIGYISYSGSTNYNPSLRSRVTMSVDTSKNQFSLDLNSVTAADTAVYYCATDGGGFYPGYFPHWGQGTLVTVSS
VL: DIQMTQSPSSLSASVGDRVTITCRASQSISDYVNWYQQKPGRAPRLLIYAPSTLQSGVPSRFSGSGSGTDFTLTISNLQPEDFGTYFCQQSYSTPPYTFGQGTKVEMK
For the molecule B12, the “IC50 (pVNT)” value with BQ.1.1 spike protein [1] is not above 550 ng/ml.

B13: Ab43 (10x-L8N-c42) (antibody, V domains shown)
VH: EVQLVESGGGLVKPGGSLRLSCAASGFTFSRHTMNWVRQAPGKGLEWVSSIGGSTPLSFYAESVKGRFSISRDNAKSSLFLQMSSLRADDTAVYYCVRDSIASVTTLFDLWGRGTVVTVSS
VL: DIQMTQSPSSLSASVGDRVTITCRASQTIRNYINWYQQRPGKAPRLLIYDASTLQSGVPSRFSGGGSGTDFTLTISSLEPEDFATYYCQQSYVSPPEDSFGQGTKLEIK
In the case of B13, the “IC50 (pVNT)” value in the assay with BQ.1.1 spike protein [1] was not above 550 ng/ml.

B14: Ab52 (10x-L8N-c89) (antibody, V domains shown)
VH: QVQLVQSGSEVKKPGSSVKVSCRASGDTFSSHSLSWVRQAPGQGLEWMGRIVPMFGITNYAQNFQGRVTFTADKSTSTAYMELSSLRSEDTAVYYCARAGTMITFGGLTDDGQLNWFDPWGQGTLVTVSS
VL: DVVLTQSPLSLSVTLGQPASISCRSSQSLEYSDGDTYLNWFHQRPGQSPRRLIYKVSNRDSGVPDRFSGSGAGTDFTLKISKVEAEDVGVYYCMQGTNWPPNFGPGTKVDIK
In the case of B14, the “IC50 (pVNT)” value in the assay with BQ.1.1 spike protein [1] was not above 550 ng/ml.

B15: Ab49 (10x-L8N-c73) (antibody, V domains shown)
VH: QVQLVQSGAEVKKPGSSVKVSCKASGGTFTTYAIAWVRQAPGQGLEWMGRIIPTLDNPNYAQKFQGRVSITADKSTGTSYMELRSLRSDDTAVYYCAHVSYDSSGPHLSWYFNLWGRGTLITVSS
VL: DIQMTQSPSTLSASVGDRVTITCRASQSIPSRLAWYQHKPGEAPKLLIYEASTLESGVPSRFSGSGSGTEFTLTITSLQPDDFATYFCQGWNAFGGGTKVEIK
As to B15, the “IC50 (pVNT)” value with BQ.1.1 spike protein [1] is not above 550 ng/ml.

B16: Ab1 (B11.2) (antibody, V domains shown)
VH: EVQLVESGGGLVQPGGSLRLSCAASEIIVSRNYMTWVRQAPGKGLEWLAVLYAGGSSFYADSVKGRFTISRDNSKNTLFLQMNSLRAEDTAVYYCARDLSLSGGFDYWGQGALVTVSS
VL: DIQLTQSPSFLSASVGDRVTITCRASQGISNYLAWYQQNPGKAPKLLIYAVSTLHSGVPSRFSGSGSGTEFTLTISSLQPEDFATYYCQHLNTDSCTFGQGTKLEIK
Turning to B16, the “concentration required” value is 11.6 ng/ml with XBB.1 spike protein and 16.5 ng/ml with BQ.1.1 spike protein [1]. In addition, the “IC50 (pVNT)” value with BQ.1.1 spike protein [1] is not above 300 ng/ml.

B17: Ab50 (10x-L8N-c84) (antibody, V domains shown)
VH: QVQLVQSGAAVKKPGSSVKVSCEASGGTFSRFAVNWVRQAPGQGLEWMGRIIPLFAIANYPQRFQGRVIMSADRSTNITYMELSRLTSEDTAVYYCAREIDTVIDPAMDVFHGMEVWGQGTTVIVSS
VL: QSVLTQPPSASGTPGQRVTISCSGRSSNIGSNYVHWYQQLPGTAPKLLIYRNNQRPSGVPDRFSGSKSGTSASLAISGLRSEDEADYYCAGWDDSLSGAVFGGGTKLSVL
Regarding B17, in the assay with BQ.1.1 spike protein [1], the “IC50 (pVNT)” value is not above 550 ng/ml.
